In patent publication US20240383970A1 (BEIJING IMMUNOCHINA PHARMACEUTICALS, published 2024) one finds EC50 data, which are given here for two molecules.

This experiment concerns the target T1, CAR targeting CD19 containing a Strep-Tag II tag, on CAR-T cells (UniProt P01732 138-206; Q07011 214-255; P20963 52-163).
T1 construct: domain: CD8α hinge region, CD8α transmembrane region;domain: intracellular region of 4-IBB;domain: intracellular region of CD3ζ; Expressed on human T cells after lentiviral transduction; also called CAR-T cells containing a Strep-Tag II tag; Strep-Tag II short peptide
Kind of experiment: flow cytometry titration (10 concentrations) on CAR-T cells with Strep-Tag II tag; filing equates EC50 with KD (saturated concentration method). From the text:
The antibody affinity detection of the present invention adopts the dynamic equilibrium assay method (saturated concentration method). In the presence of a small amount of antigen, the antibody is subjected to gradient dilution to detect the concentration of the antigen-antibody complex. When the concentration of the antigen-antibody complex accounts for half of the total antigen concentration, the corresponding concentration value (EC50) of the antibody is the KD value of the antibody relative to the antigen.
CAR-T cells containing a Strep-Tag II tag were collected, washed with DPBS and counted. The cells were dispensed into several EP tubes at approximately 3×10⁵ cells per tube. After centrifugation to remove the supernatant, 8A882 antibody or 8F8D1 antibody and a positive control antibody (commercial Strep-Tag II antibody, Abcam; Cat #: ab184224) diluted in serial gradient for 10 concentrations were added and incubated at room temperature for 15 minutes. After washing the cells twice with DPBS, PE-labeled rat anti-mouse IgG was added, and incubated at room temperature for 15 minutes. After washing the cells twice, FACS analysis and GraphPad Prism software were used to calculate the EC50 value. […] Compared with the positive control antibody, the two strain antibodies of the present invention have high affinity.

T1 sequence (P20963 other isoform, or with tags, fused parts or gaps): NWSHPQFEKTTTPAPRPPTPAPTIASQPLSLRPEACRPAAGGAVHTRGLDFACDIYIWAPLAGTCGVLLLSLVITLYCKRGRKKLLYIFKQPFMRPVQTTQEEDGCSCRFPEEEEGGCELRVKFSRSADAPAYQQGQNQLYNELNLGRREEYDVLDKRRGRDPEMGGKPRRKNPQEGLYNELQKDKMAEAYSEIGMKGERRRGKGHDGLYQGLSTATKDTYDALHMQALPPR

B1: 8A882 antibody (antibody, mouse IgG1, kappa, V domains shown)
VH: EVQLQQSGPELVKPGASVKMSCKASGYTFTDYYMKWVKQSHGKSLEWIGDINPNNGDTFYNQKFKGKATLTVDKSSSSAYMQLNSLTSEDSAVYYCARYYGNSSPWFAYWGQGTLVTVSA
VL: DIVLTQSPASLAVSLGQRATISCKASQSVDYDGDSYMNWYQQKPGQPPKLLIYAASNLQSGIPARFSGSGSGTDFTLNIHPVEEEDTATYYCQQITEDPWTFGGRTKLEIKR
notes: Mouse monoclonal antibody from a hybridoma, purified from ascites on a Protein A/G column
With B1, the response was half-maximal at 0.4 nM (EC50).

B2: 8F8D1 antibody (antibody, V domains shown)
VH: EVQLQQSGPELVKPGASVKMSCKASGYTFTDYYMKWVKQSHGKRLEWIGDINPNNGDTFYNQKFKGKATLTVDKSSSTAYMQLNSLTSEDSAVYYCARYYGRSSPWFPYWGQGTLVTVSA
VL: DIVLTQSPASLGVSLGQRATISCKASQSVDNSGDSYMNWYQQKPGQPPKLLIYAASNLESGIPARFSGSGSGTDFTLNIHPVEEEDAATYYCQQINEDPWTFGGRTKLEIKR
notes: Mouse monoclonal antibody from a hybridoma, purified from ascites on a Protein A/G column; also called PE-labeled 8F8D1 antibody
On to B2, for which the EC50 was found to be 0.2 nM.
